In IntAct's records for PubMed 19966303:

B1: Phospholipid-transporting ATPase DNF1 (Saccharomyces cerevisiae), P32660 (parent)
chain: MSGTFHGDGHAPMSPFEDTFQFEDNSSNEDTHIAPTHFDDGATSNKYSRPQVSFNDETPKNKREDAEEFTFNDDTEYDNHSFQPTPKLNNGSGTFDDVELDNDSGEPHTNYDGMKRFRMGTKRNKKGNPIMGRSKTLKWARKNIPNPFEDFTKDDIDPGAINRAQELRTVYYNMPLPKDMIDEEGNPIMQYPRNKIRTTKYTPLTFLPKNILFQFHNFANVYFLVLIILGAFQIFGVTNPGLSAVPLVVIVIITAIKDAIEDSRRTVLDLEVNNTKTHILEGVENENVSTDNISLWRRFKKANSRLLFKFIQYCKEHLTEEGKKKRMQRKRHELRVQKTVGTSGPRSSLDSIDSYRVSADYGRPSLDYDNLEQGAGEANIVDRSLPPRTDCKFAKNYWKGVKVGDIVRIHNNDEIPADIILLSTSDTDGACYVETKNLDGETNLKVRQSLKCTNTIRTSKDIARTKFWIESEGPHSNLYTYQGNMKWRNLADGEIRNEPITINNVLLRGCTLRNTKWAMGVVMFTGGDTKIMLNSGITPTKKSRISRELNFSVVINFVLLFILCFVSGIANGVYYDKKGRSRFSYEFGTIAGSAATNGFVSFWVAVILYQSLVPISLYISVEIIKTAQAAFIYGDVLLYNAKLDYPCTPKSWNISDDLGQVEYIFSDKTGTLTQNVMEFKKCTINGVSYGRAYTEALAGLRKRQGIDVETEGRREKAEIAKDRDTMIDELRALSGNSQFYPEEVTFVSKEFVRDLKGASGEVQQRCCEHFMLALALCHSVLVEANPDNPKKLDLKAQSPDEAALVATARDVGFSFVGKTKKGLIIEMQGIQKEFEILNILEFNSSRKRMSCIVKIPGLNPGDEPRALLICKGADSIIYSRLSRQSGSNSEAILEKTALHLEQYATEGLRTLCIAQRELSWSEYEKWNEKYDIAAASLANREDELEVVADSIERELILLGGTAIEDRLQDGVPDCIELLAEAGIKLWVLTGDKVETAINIGFSCNLLNNEMELLVIKTTGDDVKEFGSEPSEIVDALLSKYLKEYFNLTGSEEEIFEAKKDHEFPKGNYAIVIDGDALKLALYGEDIRRKFLLLCKNCRAVLCCRVSPSQKAAVVKLVKDSLDVMTLAIGDGSNDVAMIQSADVGIGIAGEEGRQAVMCSDYAIGQFRYLARLVLVHGRWSYKRLAEMIPEFFYKNMIFALALFWYGIYNDFDGSYLYEYTYMMFYNLAFTSLPVIFLGILDQDVNDTISLVVPQLYRVGILRKEWNQRKFLWYMLDGLYQSIICFFFPYLVYHKNMIVTSNGLGLDHRYFVGVYVTTIAVISCNTYVLLHQYRWDWFSGLFIALSCLVVFAWTGIWSSAIASREFFKAAARIYGAPSFWAVFFVAVLFCLLPRFTYDSFQKFFYPTDVEIVREMWQHGHFDHYPPGYDPTDPNRPKVTKAGQHGEKIIEGIALSDNLGGSNYSRDSVVTEEIPMTFMHGEDGSPSGYQKQETWMTSPKETQDLLQSPQFQQAQTFGRGPSTNVRSSLDRTREQMIATNQLDNRYSVERARTSLDLPGVTNAASLIGTQQNN
B2: Serine/threonine-protein kinase YPK1 (Saccharomyces cerevisiae), P12688 (parent)
chain: MYSWKSKFKFGKSKEEKEAKHSGFFHSSKKEEQQNNQATAGEHDASITRSSLDRKGTINPSNSSVVPVRVSYDASSSTSTVRDSNGGNSENTNSSQNLDETANIGSTGTPNDATSSSGMMTIKVYNGDDFILPFPITSSEQILNKLLASGVPPPHKEISKEVDALIAQLSRVQIKNQGPADEDLISSESAAKFIPSTIMLPGSSTLNPLLYFTIEFDNTVATIEAEYGTIAKPGFNKISTFDVTRKLPYLKIDVFARIPSILLPSKTWQQEMGLQDEKLQTIFDKINSNQDIHLDSFHLPINLSFDSAASIRLYNHHWITLDNGLGKINISIDYKPSRNKPLSIDDFDLLKVIGKGSFGKVMQVRKKDTQKVYALKAIRKSYIVSKSEVTHTLAERTVLARVDCPFIVPLKFSFQSPEKLYFVLAFINGGELFYHLQKEGRFDLSRARFYTAELLCALDNLHKLDVVYRDLKPENILLDYQGHIALCDFGLCKLNMKDDDKTDTFCGTPEYLAPELLLGLGYTKAVDWWTLGVLLYEMLTGLPPYYDEDVPKMYKKILQEPLVFPDGFDRDAKDLLIGLLSRDPTRRLGYNGADEIRNHPFFSQLSWKRLLMKGYIPPYKPAVSNSMDTSNFDEEFTREKPIDSVVDEYLSESVQKQFGGWTYVGNEQLGSSMVQGRSIR

Variants of: B1
Conditions: with fpk1_yeast FPK1, P53739
Target sequence in this assay (P53739 whole entry): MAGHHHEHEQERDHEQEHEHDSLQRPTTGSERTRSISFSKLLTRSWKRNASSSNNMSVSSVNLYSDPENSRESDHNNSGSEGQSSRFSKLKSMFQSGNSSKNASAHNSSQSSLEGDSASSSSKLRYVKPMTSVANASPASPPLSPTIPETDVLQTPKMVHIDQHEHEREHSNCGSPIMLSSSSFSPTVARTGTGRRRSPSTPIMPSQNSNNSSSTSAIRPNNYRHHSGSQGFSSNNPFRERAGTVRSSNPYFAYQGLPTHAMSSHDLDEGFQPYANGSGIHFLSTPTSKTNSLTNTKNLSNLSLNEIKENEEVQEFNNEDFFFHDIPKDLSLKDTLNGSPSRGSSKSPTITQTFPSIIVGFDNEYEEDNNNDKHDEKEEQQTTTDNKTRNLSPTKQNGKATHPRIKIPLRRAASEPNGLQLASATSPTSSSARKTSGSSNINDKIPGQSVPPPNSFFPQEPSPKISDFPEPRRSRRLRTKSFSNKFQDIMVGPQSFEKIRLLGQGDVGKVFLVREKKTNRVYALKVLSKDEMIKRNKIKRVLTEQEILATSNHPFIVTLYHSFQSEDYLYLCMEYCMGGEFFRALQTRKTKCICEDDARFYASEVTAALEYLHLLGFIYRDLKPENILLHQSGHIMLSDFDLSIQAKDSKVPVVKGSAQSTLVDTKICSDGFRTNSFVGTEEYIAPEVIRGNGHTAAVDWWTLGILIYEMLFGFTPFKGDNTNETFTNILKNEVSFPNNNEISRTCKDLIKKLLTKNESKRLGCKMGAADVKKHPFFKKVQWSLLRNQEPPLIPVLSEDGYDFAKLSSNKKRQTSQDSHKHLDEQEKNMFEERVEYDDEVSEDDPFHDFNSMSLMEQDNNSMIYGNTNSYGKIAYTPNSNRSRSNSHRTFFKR

| Variant | effect of a mutation on the interaction |
| --- | --- |
| S1526A;S1552A | decreasing interaction |

Variants of: B2
Conditions: with fpk1_yeast FPK1, P53739
Target sequence in this assay (P53739 whole entry): as above

| Variant | effect of a mutation on the interaction |
| --- | --- |
| S51A;S71A | disrupting interaction |
